Laboratory results: patent US7407939B2, “Protein kinase inhibitors comprising ATP mimetics conjugated to peptides or peptidomimetics” (CureGenics Ltd., priority 2001, dated 2008)
Where two headings read alike, the source gives them in different places. *1 amine or outer side, *2 acyl side, *3 side chain or, on linkers, in order; H or OH if unused. Where a SMILES comes first, the peptide text is derived from it. Where no end group is shown, it is not given here. Side-chain parts run from the residue outwards. [ ]: non-standard residue; d: D form. The star is where a group is joined. ξ: configuration not given here. X1 = 5‑aminoethylsulfonamide isoquinoline, O=S(=O)(NCCN*)c1cccc2cnccc12; Isoquinoline5sulfonyl = O=S(=O)(c1cccc2cnccc12)*; X3 = O=C(OC[C@H](Cc1ccccc1)N[*:1])[*:2]; Ethylenediamine = C(CN[*:2])N[*:1]; hLeu = CC(C)CC[C@H](N)C(=O)O; Nle = CCCC[C@H](N)C(=O)O; Orn = NCCC[C@H](N)C(=O)O; Dab = NCC[C@H](N)C(=O)O; Nva = CCC[C@H](N)C(=O)O; ξE = NC(CCC(=O)O)C(=O)O; Abu = CC[C@H](N)C(=O)O; Dap = NC[C@H](N)C(=O)O; GlyNH2 = aminoglycine; βAla = NCCC(=O)O

Columns and labels:
PKB = molecular target: T1, PKB (Homo sapiens, UniProt P31749); assay: PKB in vitro kinase activity assay (soluble His-HA-PKB / SPA bead screening); assay type: biochemical; set-up: % Inhibition PKB I / % Inhibition PKB II: concentration or dose not given beside the values; details: for % Inhibition PKB I / % Inhibition PKB II: plate screening, peptide moiety alone; for PKB-kinase (spa) Assay 1, % inhibition of kinase activity / PKB-kinase (spa) Assay 2, % inhibition of kinase activity: 1 μM compound concentration
T1 construct: His; HA; made in house

PKA = molecular target: T2, PKA (Bos taurus, UniProt P00517); assay: In vitro PKA kinase activity assay (kemptide / SPA beads); assay type: biochemical; set-up: % Inhibition PKA: concentration or dose not given beside the values; details: for % Inhibition PKA: plate screening, peptide moiety alone; for PKA-kinase Assay 1, % inhibition of kinase activity / PKA-kinase Assay 2, % inhibition of kinase activity: 1 μM compound concentration;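 as to all read-outs here: Cell-free assay of purified PKA catalytic subunit phosphorylating the 7-mer kemptide substrate, run in MOPS buffer with magnesium acetate and BSA, with blank wells lacking enzyme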
T2 construct: purchased Promega

[1] = Table 3, linear 7-mer peptides, read-out: Activity PKB
[2] = chimeric PTR compounds (peptide conjugated to isoquinoline small molecule), read-out: PKB IC50

T1 sequence (P31749 whole entry, species assumed): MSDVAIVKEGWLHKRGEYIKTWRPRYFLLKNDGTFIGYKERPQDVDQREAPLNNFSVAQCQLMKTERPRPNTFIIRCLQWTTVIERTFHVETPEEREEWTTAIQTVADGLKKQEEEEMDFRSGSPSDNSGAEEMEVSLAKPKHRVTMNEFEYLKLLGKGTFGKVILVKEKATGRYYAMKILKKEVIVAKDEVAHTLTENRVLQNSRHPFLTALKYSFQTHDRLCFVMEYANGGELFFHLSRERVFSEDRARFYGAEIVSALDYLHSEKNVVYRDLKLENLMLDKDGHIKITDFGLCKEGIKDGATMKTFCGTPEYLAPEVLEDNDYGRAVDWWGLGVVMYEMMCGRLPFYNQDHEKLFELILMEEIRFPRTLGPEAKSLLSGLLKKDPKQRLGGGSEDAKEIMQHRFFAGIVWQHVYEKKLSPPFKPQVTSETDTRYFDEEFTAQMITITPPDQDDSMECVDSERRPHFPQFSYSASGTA

Compound	PKB-kinase (spa) Assay 1, % inhibition of kinase activity (PKB) [%]	PKB-kinase (spa) Assay 2, % inhibition of kinase activity (PKB) [%]	PKA-kinase Assay 1, % inhibition of kinase activity (PKA) [%]	PKA-kinase Assay 2, % inhibition of kinase activity (PKA) [%]	further results
60002-88 (RPRT[Abu][Dap]F) [Compound 60002-88]					% Inhibition PKB I (PKB): 40%; % Inhibition PKA (PKA): −3%
60005-32 (RPRT[GlyNH2]A[hLeu]) [Compound 60005-32]					% Inhibition PKB I (PKB): 43%; % Inhibition PKB II (PKB): 44%; % Inhibition PKA (PKA): 4%
60005-75 (RPR[Nva]S[GlyNH2][hLeu]) [Compound 60005-75]					% Inhibition PKB I (PKB): 70%; % Inhibition PKB II (PKB): 70%; % Inhibition PKA (PKA): −4%
60005-84 (RPR[Nva]TA[hLeu]) [Compound 60005-84]					% Inhibition PKB I (PKB): 39%; % Inhibition PKB II (PKB): 48%; % Inhibition PKA (PKA): 7%
60020-1: Arg-Pro-Arg-Dap-Glu(5-aminoethylsulfonamide isoquinoline)-Dab-Phe (RPR[Dap]E(X1)[Dab]F)	67	65	98	99	
60020-2: Arg-Pro-Arg-Dap-Glu(5-aminoethylsulfonamide isoquinoline)-Dab-Hol (RPR[Dap]E(X1)[Dab][hLeu])	47	48	94	95	
60020-3: Arg-Pro-Arg-Dap-Glu(5-aminoethylsulfonamide isoquinoline)-Orn-Phe (RPR[Dap]E(X1)[Orn]F)	52	60	96	96	
60020-9: Arg-Pro-Arg-Orn-Glu(5-aminoethylsulfonamide isoquinoline)-Dab-Phe (RPR[Orn]E(X1)[Dab]F)	71	57	96	97	
60020-10: Arg-Pro-Arg-Orn-Glu(5-aminoethylsulfonamide isoquinoline)-Dab-Hol (RPR[Orn]E(X1)[Dab][hLeu])	45	48	92	94	
60020-11: Arg-Pro-Arg-Orn-Glu(5-aminoethylsulfonamide isoquinoline)-Orn-Phe (RPR[Orn]E(X1)[Orn]F)	58	52	95	96	
60020-33: Arg-Pro-Arg-Dap-Glu(Gly-5-aminoethylsulfonamide isoquinoline)-Dab-Phe (RPR[Dap]E([Gly-X1])[Dab]F)	63	69	98	98	
60020-34: Arg-Pro-Arg-Dap-Glu(Gly-5-aminoethylsulfonamide isoquinoline)-Dab-Hol (RPR[Dap]E([Gly-X1])[Dab][hLeu])	64	65	97	98	
60020-35: Arg-Pro-Arg-Dap-Glu(Gly-5-aminoethylsulfonamide isoquinoline)-Orn-Phe (RPR[Dap]E([Gly-X1])[Orn]F; not fully specified)	43	56	95	96	
60020-36: Arg-Pro-Arg-Dap-Glu(Gly-5-aminoethylsulfonamide isoquinoline)-Orn-Hol (RPR[Dap]E([Gly-X1])[Orn][hLeu])	69	71	93	94	
60020-89: Arg-Pro-Arg-Nle-Glu(bAla-5-aminoethylsulfonamide isoquinoline)-Dab-Phe (RPR[Nle]E([βAla-X1])[Dab]F)	8	48			
60020-90: Arg-Pro-Arg-Nle-Glu(bAla-5-aminoethylsulfonamide isoquinoline)-Dab-Hol (RPR[Nle]E([βAla-X1])[Dab][hLeu])	19	27			

Compound	PKB-kinase (spa) Assay 1, % inhibition of kinase activity (PKB) [%]	PKB-kinase (spa) Assay 2, % inhibition of kinase activity (PKB) [%]	PKA-kinase Assay 1, % inhibition of kinase activity (PKA) [%]	PKA-kinase Assay 2, % inhibition of kinase activity (PKA) [%]	further results
60020-92: Arg-Pro-Arg-Nle-Glu(bAla-5-aminoethylsulfonamide isoquinoline)-Orn-Hol (RPR[Nle]E([βAla-X1])[Orn][hLeu])	40	59			
60020-93: Arg-Pro-Arg-Nle-Glu(bAla-5-aminoethylsulfonamide isoquinoline)-Ala-Phe (RPR[Nle]E([βAla-X1])AF)	−12	58			
60020-94: Arg-Pro-Arg-Nle-Glu(bAla-5-aminoethylsulfonamide isoquinoline)-Ala-Hol (RPR[Nle]E([βAla-X1])A[hLeu])	9	31			
60020-96: Arg-Pro-Arg-Nle-Glu(bAla-5-aminoethylsulfonamide isoquinoline)-Nva-Hol (RPR[Nle]E([βAla-X1])[Nva][hLeu])	0	54			
N=C(N)NCCC[C@H](NC(=O)[C@@H]1CCCN1C(=O)[C@@H](N)CCCNC(=N)N)C(=O)N[C@@H](CCCN)C(=O)N[C@@H](CO)C(=O)N[C@@H](CO)C(=O)N[C@@H](Cc1ccccc1)C(N)=O [AR 60003-52, Arg-Pro-Arg-Orn-Ser-Ser-Phe] (H-RPR[Orn]SSF-NH2; N-terminus and C-terminus assumed)					IC50 (PKB; [1]): 2.5 µM
CCCC[C@H](NC(=O)[C@H](CO)NC(=O)[C@H](CO)NC(=O)[C@H](CCCC)NC(=O)[C@H](CCCNC(=N)N)NC(=O)[C@@H]1CCCN1C(=O)[C@@H](N)CCCNC(=N)N)C(N)=O [AR 60003-62, Arg-Pro-Arg-Nle-Ser-Ser-Nle] (H-RPR[Nle]SS[Nle]-NH2)					inhibition at 1 µM (PKB; at 1 μM, Table 3, read-out: inhibition (PKB)): 70%
C[C@@H](O)[C@H](NC(=O)[C@H](CCCNC(=N)N)NC(=O)[C@@H]1CCCN1C(=O)[C@@H](N)CCCNC(=N)N)C(=O)N[C@@H](CO)C(=O)NC(CCC(=O)NCCNS(=O)(=O)c1cccc2cnccc12)C(=O)N[C@@H](Cc1ccccc1)C(N)=O (some centres unmarked) [PTR 6014] (H-RPRTS[ξE]([Ethylenediamine-Isoquinoline5sulfonyl])F-NH2)					IC50 (PKB; Table 2, chimeric compounds, read-out: Activity PKB): 25 µM
CC[C@H](NC(=O)[C@H](CO)NC(=O)[C@@H](NC(=O)[C@H](CCCNC(=N)N)NC(=O)[C@@H]1CCCN1C(=O)[C@@H](N)CCCNC(=N)N)[C@@H](C)O)C(=O)N[C@H](COC(=O)NCCNS(=O)(=O)c1cccc2cnccc12)Cc1ccccc1 [compound 6013] (H-RPRTS[Abu][X3]-{Ethylenediamine-Isoquinoline5sulfonyl})					IC50 (PKB; [2]): 4 µM
C[C@@H](O)[C@H](NC(=O)[C@H](CCCNC(=N)N)NC(=O)[C@@H]1CCCN1C(=O)[C@@H](N)CCCNC(=N)N)C(=O)N[C@@H](CO)C(=O)N[C@@H](CCC(=O)NCCNS(=O)(=O)c1cccc2cnccc12)C(=O)N[C@@H](Cc1ccccc1)C(N)=O [compound 6014] (H-RPRTSE([Ethylenediamine-Isoquinoline5sulfonyl])F-NH2)					IC50 (PKB; [2]): 25 µM
CCC[C@H](NC(=O)[C@H](CCCNC(=N)N)NC(=O)[C@@H]1CCCN1C(=O)[C@@H](N)CCCNC(=N)N)C(=O)N[C@@H](CCC(=O)NCCNS(=O)(=O)c1cccc2cnccc12)C(=O)N[C@@H](C)C(=O)N[C@@H](CCC(C)C)C(N)=O [compound 6150] (H-RPR[Nva]E([Ethylenediamine-Isoquinoline5sulfonyl])A[hLeu]-NH2; N-terminus assumed)					IC50 (PKB; [2]): 25 µM
RPRMSSF-NH2 (C-terminus assumed) [AR 60003-50, Arg-Pro-Arg-Met-Ser-Ser-Phe]					IC50 (PKB; [1]): 2.5 µM
RPRRSSF-NH2 (C-terminus assumed) [AR 60003-53, Arg-Pro-Arg-Arg-Ser-Ser-Phe]					IC50 (PKB; [1]): 3 µM
RPRRSSR [AR 60003-64, Arg-Pro-Arg-Arg-Ser-Ser-Arg]					Activity PKB (PKB; Table 3, linear 7-mer peptides): Not active
RPRTSDF [TY 60002-18, Arg-Pro-Arg-Thr-Ser-Asp-Phe]					Activity PKB (PKB; Table 3, linear 7-mer peptides): Not active
RPR[Orn]AT[Orn] [AR 60003-96]					Activity PKB (PKB; Table 3, linear 7-mer peptides): Not active
